Assay [1] addresses carcinoembryonic antigen (CEA) expressed by LS174T human colon carcinoma tumors (human (LS174T human colon carcinoma cells)) (UniProt P06731). Briefly: cell-based or functional assay.
Assay [2] has as its target T1, carcinoembryonic antigen (CEA), form not stated (UniProt P06731 35-685, limits assumed).
T1 sequence (looked up): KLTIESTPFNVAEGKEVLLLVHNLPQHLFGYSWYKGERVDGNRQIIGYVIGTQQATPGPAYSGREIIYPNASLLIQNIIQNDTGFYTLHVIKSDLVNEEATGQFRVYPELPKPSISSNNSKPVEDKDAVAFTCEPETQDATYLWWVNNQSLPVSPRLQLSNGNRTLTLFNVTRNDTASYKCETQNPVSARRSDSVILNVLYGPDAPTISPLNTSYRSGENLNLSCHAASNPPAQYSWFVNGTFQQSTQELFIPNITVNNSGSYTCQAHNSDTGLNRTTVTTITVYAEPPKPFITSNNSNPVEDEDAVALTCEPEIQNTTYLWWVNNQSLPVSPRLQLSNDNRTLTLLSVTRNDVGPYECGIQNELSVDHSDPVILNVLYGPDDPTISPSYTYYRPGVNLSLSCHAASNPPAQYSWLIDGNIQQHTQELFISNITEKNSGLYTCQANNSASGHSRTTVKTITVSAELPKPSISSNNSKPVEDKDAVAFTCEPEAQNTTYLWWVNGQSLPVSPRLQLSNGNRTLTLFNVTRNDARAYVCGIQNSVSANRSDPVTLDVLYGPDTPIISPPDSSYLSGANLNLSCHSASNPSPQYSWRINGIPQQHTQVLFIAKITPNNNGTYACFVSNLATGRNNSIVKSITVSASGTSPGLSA
The assay can be described thus: not stated; given as a property of the peptide.

This note sets out measurements from patent publication US20120076728A1 (University of California, published 2012).

No end group written: not given here.

As for anti-CEA T84.66 diabody (Db), the CEA positive-to-negative tumor uptake ratio at 51 h in assay [1] turned out to be 13.

B1: CEA specific, cyclic peptide SDWVCEFIKSQWFCNVLASG (peptide)
peptide: SDWVCEFIKSQWFCNVLASG-HyNic
modifications: also: cyclic, bond type and places not given here
notes: also called anti-CEA peptide; CEA specific peptide
Regarding B1, binding in assay [2] was put at a Kd of 160 nM.

The term Kd denotes the free concentration of one partner at which half of the binding sites on the other are occupied at equilibrium, for simple one-to-one binding. A lower Kd goes with a tighter complex.
